Laboratory results reported in article PMC5507911, “Beyond the Debye length in high ionic strength solution: direct protein detection with field-effect transistors (FETs) in human serum”.

Assays:
C-reactive protein (CRP) = target: T1, C-reactive protein (CRP) (UniProt P02741 19-224); assay: EDL FET (AlGaN/GaN HEMT) biosensor; 1X PBS with 1% BSA; 1 fM-100 nM CRP; current gain increases with concentration; 1X PBS with 1% BSA (or undiluted human serum for CRP), 5 min incubation for HIV-1 RT, no washing; Vd 2 V, Vg pulse 0 to 0.5 V (HIV-1 RT); pH and temperature not stated; settings: chain copies: 5
T1 sequence: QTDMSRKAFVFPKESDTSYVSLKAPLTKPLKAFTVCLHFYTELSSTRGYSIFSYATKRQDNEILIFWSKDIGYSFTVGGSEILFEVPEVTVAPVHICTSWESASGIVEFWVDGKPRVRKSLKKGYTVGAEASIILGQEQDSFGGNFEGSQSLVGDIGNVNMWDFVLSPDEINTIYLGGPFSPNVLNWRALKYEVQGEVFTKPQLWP

[1] = target: T2, C-reactive protein (CRP) in clinical serum (human, UniProt P02741 19-224); assay: EDL FET (AlGaN/GaN HEMT) biosensor; undiluted human sera; 0.34-23.2 mg/L CRP; 1X PBS with 1% BSA (or undiluted human serum for CRP), 5 min incubation for HIV-1 RT, no washing; Vd 2 V, Vg pulse 0 to 0.5 V (HIV-1 RT); pH and temperature not stated; settings: protein: native; chain copies: 5
T2 sequence: T1 sequence

[2] = target: HIV-1 reverse transcriptase (HIV-1 RT) (HIV-1, UniProt P04585;P04585 588-1147;588-1027); assay: EDL FET (AlGaN/GaN HEMT) biosensor; 1X PBS with 1% BSA; 1 fM-10 pM RT; current gain decreases with concentration; 1X PBS with 1% BSA (or undiluted human serum for CRP), 5 min incubation for HIV-1 RT, no washing; Vd 2 V, Vg pulse 0 to 0.5 V (HIV-1 RT); pH and temperature not stated; settings: copies: 1;1

B1: CRP aptamer (ssDNA)
DNA: GGCAGGAAGACAAACACGATGGGGGGGTATGATTTGATGTGGTTGTTGCATGATCGTGGTCTGTGGTGCTGT
modifications: 5' thiol (SH)
binding result (C-reactive protein (CRP)): binds | binding result [1]: binds

B2: HIV-1 RT aptamer (ssDNA)
DNA: TTTTTTTATACGTGAGCGTGCTGTCCCCTAAAGGTGATACGTCAGGGG
modifications: 5' thiol (SH)
binding result [2]: binds
